Measured values reported in PMC7532149, “Antibiotic export by MexB multidrug efflux transporter is allosterically controlled by a MexA-OprM chaperone-like complex” (Nature Communications, 2020).

B4: OprM (natural protein)
chain: CSLIPDYQRPEAPVAAAYPQGQAYGQNTGAAAVPAADIGWREFFRDPQLQQLIGVALENNRDLRVAALNVEAFRAQYRIQRADLFPRIGVDGSGTRQRLPGDLSTTGSPAISSQYGVTLGTTAWELDLFGRLRSLRDQALEQYLATEQAQRSAQTTLVASVATAYLTLKADQAQLQLTKDTLGTYQKSFDLTQRSYDVGVASALDLRQAQTAVEGARATLAQYTRLVAQDQNALVLLLGSGIPANLPQGLGLDQTLLTEVPAGLPSDLLQRRPDILEAEHQLMAANASIGAARAAFFPSISLTANAGTMSRQLSGLFDAGSGSWLFQPSINLPIFTAGSLRASLDYAKIQKDINVAQYEKAIQTAFQEVADGLAARGTFTEQLQAQRDLVKASDEYYQLADKRYRTGVDNYLTLLDAQRSLFTAQQQLITDRLNQLTSEVNLYKALGGGWNQQTVTQQQTAKKEDPQA
notes: OprM, outer-membrane factor of the MexAB-OprM efflux system of Pseudomonas aeruginosa; Homotrimer; also called OprM-ND; outer-membrane factor (OMF); source: reconstituted in POPC nanodiscs (MSP1D1) or DOPC proteoliposomes

Legend:
Test in all cases: cryo-EM structure; tripartite MexAB-OprM complex self-assembled from MexA and MexB in POPC nanodiscs and OprM in POPC nanodiscs; 10 mM Tris/Cl pH 7.4, 100 mM NaCl; enriched by SEC (Superose 6, detergent-free buffer); single-particle analysis, no symmetry imposed
[1] = target: T1, MexA (Pseudomonas aeruginosa), P52477; conditions: remark: other sources report otherwise
T1 chain: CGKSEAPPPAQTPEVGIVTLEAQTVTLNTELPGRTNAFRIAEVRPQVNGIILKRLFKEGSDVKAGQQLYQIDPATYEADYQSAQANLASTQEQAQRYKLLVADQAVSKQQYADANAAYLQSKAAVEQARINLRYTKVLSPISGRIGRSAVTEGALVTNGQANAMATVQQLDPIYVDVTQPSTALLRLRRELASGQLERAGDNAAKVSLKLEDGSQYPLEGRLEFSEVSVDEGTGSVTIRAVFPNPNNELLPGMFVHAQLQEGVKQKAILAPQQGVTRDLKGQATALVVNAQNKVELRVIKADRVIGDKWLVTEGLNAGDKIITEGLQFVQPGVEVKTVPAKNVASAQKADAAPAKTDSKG

[2] = target: B4; conditions: both partners purified
[3] = target: the molecule itself

B1: MexA, P52477 24-383 (natural protein)
chain: CGKSEAPPPAQTPEVGIVTLEAQTVTLNTELPGRTNAFRIAEVRPQVNGIILKRLFKEGSDVKAGQQLYQIDPATYEADYQSAQANLASTQEQAQRYKLLVADQAVSKQQYADANAAYLQSKAAVEQARINLRYTKVLSPISGRIGRSAVTEGALVTNGQANAMATVQQLDPIYVDVTQPSTALLRLRRELASGQLERAGDNAAKVSLKLEDGSQYPLEGRLEFSEVSVDEGTGSVTIRAVFPNPNNELLPGMFVHAQLQEGVKQKAILAPQQGVTRDLKGQATALVVNAQNKVELRVIKADRVIGDKWLVTEGLNAGDKIITEGLQFVQPGVEVKTVPAKNVASAQKADAAPAKTDSKG
modifications: here or on the partner: lipid moiety of the N-terminal cysteine; lipid moiety of the N-terminal cysteine
- stoichiometry N [1]: 6

B2: MexA (natural protein)
chain: CGKSEAPPPAQTPEVGIVTLEAQTVTLNTELPGRTNAFRIAEVRPQVNGIILKRLFKEGSDVKAGQQLYQIDPATYEADYQSAQANLASTQEQAQRYKLLVADQAVSKQQYADANAAYLQSKAAVEQARINLRYTKVLSPISGRIGRSAVTEGALVTNGQANAMATVQQLDPIYVDVTQPSTALLRLRRELASGQLERAGDNAAKVSLKLEDGSQYPLEGRLEFSEVSVDEGTGSVTIRAVFPNPNNELLPGMFVHAQLQEGVKQKAILAPQQGVTRDLKGQATALVVNAQNKVELRVIKADRVIGDKWLVTEGLNAGDKIITEGLQFVQPGVEVKTVPAKNVASAQKADAAPAKTDSKG
modifications: lipid moiety of the N-terminal cysteine
notes: MexA, periplasmic membrane fusion lipoprotein of Pseudomonas aeruginosa; N-terminal cysteine carries a lipid moiety; Six copies (a hexamer of two non-equivalent protomers, MexA-I and MexA-II) stand in the tripartite complex; also called MexA-I; MexA-II; source: reconstituted with MexB in POPC nanodiscs or DOPC/cholesterol proteoliposomes
- stoichiometry N [2]: 2 MexA per OprM

B3: MexB (natural protein)
chain: MSKFFIDRPIFAWVIALVIMLAGGLSILSLPVNQYPAIAPPAIAVQVSYPGASAETVQDTVVQVIEQQMNGIDNLRYISSESNSDGSMTITVTFEQGTDPDIAQVQVQNKLQLATPLLPQEVQRQGIRVTKAVKNFLMVVGVVSTDGSMTKEDLSNYIVSNIQDPLSRTKGVGDFQVFGSQYSMRIWLDPAKLNSYQLTPGDVSSAIQAQNVQISSGQLGGLPAVKGQQLNATIIGKTRLQTAEQFENILLKVNPDGSQVRLKDVADVGLGGQDYSINAQFNGSPASGIAIKLATGANALDTAKAIRQTIANLEPFMPQGMKVVYPYDTTPVVSASIHEVVKTLGEAILLVFLVMYLFLQNFRATLIPTIAVPVVLLGTFGVLAAFGFSINTLTMFGMVLAIGLLVDDAIVVVENVERVMAEEGLSPREAARKSMGQIQGALVGIAMVLSAVFLPMAFFGGSTGVIYRQFSITIVSAMALSVIVALILTPALCATMLKPIEKGDHGEHKGGFFGWFNRMFLSTTHGYERGVASILKHRAPYLLIYVVIVAGMIWMFTRIPTAFLPDEDQGVLFAQVQTPPGSSAERTQVVVDSMREYLLEKESSSVSSVFTVTGFNFAGRGQSSGMAFIMLKPWEERPGGENSVFELAKRAQMHFFSFKDAMVFAFAPPSVLELGNATGFDLFLQDQAGVGHEVLLQARNKFLMLAAQNPALQRVRPNGMSDEPQYKLEIDDEKASALGVSLADINSTVSIAWGSSYVNDFIDRGRVKRVYLQGRPDARMNPDDLSKWYVRNDKGEMVPFNAFATGKWEYGSPKLERYNGVPAMEILGEPAPGLSSGDAMAAVEEIVKQLPKGVGYSWTGLSYEERLSGSQAPALYALSLLVVFLCLAALYESWSIPFSVMLVVPLGVIGALLATSMRGLSNDVFFQVGLLTTIGLSAKNAILIVEFAKELHEQGKGIVEAAIEACRMRLRPIVMTSLAFILGVVPLAISTGAGSGSQHAIGTGVIGGMVTATVLAIFWVPLFYVAVSTLFKDEASKQQASVEKGQ
notes: MexB, inner-membrane RND multidrug efflux transporter of Pseudomonas aeruginosa; wild type; Homotrimer, both alone in the nanodisc (MexB-solo, LTC form) and in the tripartite complex (MexB-trio, LTO form); also called MexB-solo; MexB-trio; source: reconstituted in POPC nanodiscs (MSP1E3D1) or DOPC/cholesterol proteoliposomes
- stoichiometry N [3]: 3

Binder: B4
- stoichiometry N [3]: 3
